The target of this series is GST-Nur77 (UniProt P12813 1-601). The series is described as follows: EMSA; not given in material (EMSA according to previously described procedures, ref 34). Conditions: protein: recombinant; tags: GST; label: 32P (alpha-32P dCTP labeling); annealed to complementary oligonucleotide. A general note: Mobility shift assays separate free from complexed probe on a gel.
Sequence of GST-Nur77 (P12813 whole entry): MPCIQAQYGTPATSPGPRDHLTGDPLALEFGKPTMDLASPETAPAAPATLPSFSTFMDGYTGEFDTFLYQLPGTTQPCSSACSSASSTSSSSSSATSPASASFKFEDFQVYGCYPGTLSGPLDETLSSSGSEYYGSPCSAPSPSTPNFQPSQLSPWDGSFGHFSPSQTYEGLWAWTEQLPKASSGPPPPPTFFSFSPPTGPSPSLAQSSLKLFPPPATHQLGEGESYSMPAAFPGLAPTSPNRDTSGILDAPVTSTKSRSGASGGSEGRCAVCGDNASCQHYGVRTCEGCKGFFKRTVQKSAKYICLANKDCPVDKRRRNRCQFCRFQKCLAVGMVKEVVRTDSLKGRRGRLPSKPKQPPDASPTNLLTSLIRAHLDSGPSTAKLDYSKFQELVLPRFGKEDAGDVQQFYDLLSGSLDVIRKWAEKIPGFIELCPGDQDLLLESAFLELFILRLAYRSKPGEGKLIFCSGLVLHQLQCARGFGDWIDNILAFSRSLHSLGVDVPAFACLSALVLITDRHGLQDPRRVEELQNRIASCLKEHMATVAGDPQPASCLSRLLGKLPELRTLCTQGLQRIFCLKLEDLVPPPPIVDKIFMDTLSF

B1: NBRE oligonucleotide (dsDNA)
DNA 1: GGGGCTCGTGCGAAAAGGTCAAGCGCTA
DNA 2: TAGCGCTTGACCTTTTCGCACGAGCCCC
Take B1: the binding result is given as “binds”.

The values are drawn from publication PMC4139307, “Transforming Growth Factor-β1 Signaling Represses Testicular Steroidogenesis through Cross-Talk with Orphan Nuclear Receptor Nur77”.
